Consider one protein from US20050036988A1 (published 2005).

The data set deals with the molecule itself. In words: western immunoblotting of rat liver after chronic CCl4 injury.

B1: rat stellate cell activation-associated protein (STAP) (enzyme, UniProt Q921A4 1-190, looked up)
chain: MEKVPGDMEIERRERNEELSEAERKAVQATWARLYANCEDVGVAILVRFFVNFPSAKQYFSQFKHMEDPLEMERSPQLRKHACRVMGALNTVVENLHDPDKVSSVLALVGKAHALKHKVEPMYFKILSGVILDVIAEEFANDFPVETQKAWTKLRGLIYSHVTAAYKEVGWVQQVPNTTTLPATLPSSGP
notes: Detected in rat liver tissue lysates and sections, either endogenous or expressed from rAAV/rSTAP; Immunoblots show monomeric and dimeric forms; also called rSTAP; rat STAP
Take B1: the binding result is “binds”.
